Measurements published in patent US20260347496 (published 2026).
Where “and” joins values, the source holds several entries; their conditions need not be identical. Equal entries are not always repeated. Where two headings read alike, the source gives them in different places. One block for each binder: values may come before it.

Columns and labels:
CD24 (cell surface) [1] = molecular target: T1, CD24 (cell surface) (human); test: FACS, NALM6
T1 chain: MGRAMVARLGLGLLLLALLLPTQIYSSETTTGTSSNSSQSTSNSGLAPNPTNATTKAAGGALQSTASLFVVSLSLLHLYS

CD24(27-56aa)-GST NEOX-4 [2] = molecular target: CD24(27-56aa)-GST NEOX-4 (human); test: ELISA
CD24(27-56aa)-GST NEOX-4 (human), sequence (chain, as listed by the source): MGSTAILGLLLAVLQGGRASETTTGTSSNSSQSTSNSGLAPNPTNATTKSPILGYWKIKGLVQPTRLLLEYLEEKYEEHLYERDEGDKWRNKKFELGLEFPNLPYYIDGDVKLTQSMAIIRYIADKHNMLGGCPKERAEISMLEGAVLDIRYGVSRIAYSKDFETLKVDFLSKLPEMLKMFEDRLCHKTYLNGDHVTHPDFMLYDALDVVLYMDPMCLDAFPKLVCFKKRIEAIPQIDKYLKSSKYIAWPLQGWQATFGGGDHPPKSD

CD24 (cell surface) [3] = molecular target: T1, CD24 (cell surface); test: FACS, MDA-MB-468
CD24(27-56aa)-GST NEOX-4 [4] = molecular target: CD24(27-56aa)-GST NEOX-4 (human); test: ELISA; remark: listed apart in the source
CD24(27-56aa)-GST NEOX-4 [5] = molecular target: CD24(27-56aa)-GST NEOX-4 (human); test: ELISA; remark: listed apart in the source

EC50 (CD24 (cell surface) [1]): 0.469 µg/mL and 0.217 µg/mL
B1: P6373 (antibody, V domains shown)
VH: EVKFEESGGGLVQPGGSIKLSCAASGVTFSEAWMDWVRQSPEKGLEWVAEIRDKPNSYVTYYAESVKGRFTISRDDSKSRVYLQMNNLRTEDTGIYYCTGAMDYWGQGTSVTVSS
VL: DIVMTQTPLSLSVTIGQPASISCKSSQSLLYSNGKTYLNWLQQRPGQSPKRLIYQVSKLDPGIPDRFSGSGSETDFTLKISRVEAEDLGIYYCMQGSSLPWTFGGGTKLEIKR

EC50 (CD24(27-56aa)-GST NEOX-4 [2]): 0.00443 µg/mL
EC50 (CD24 (cell surface) [1]): 0.348 µg/mL
EC50 (CD24 (cell surface) [3]): 1.21 µg/mL
B2: huG14-217 (antibody, V domains shown)
VH: EVQLVESGGGLVKPGGSLRLSCAASGLTFSNYWGNWVRQAPGKGLEWVALIRLYSDNYAIHYAESVKGRFTISRDDSKSTVYLQMNSLKTEDTAVYYCTTGTDYWGQGTTVTVSS
VL: DVVMTQSPLSLPVTPGRPASISCKSSHSLLYSNGRTYLNWLLQKPGQSPQRLIYLVSKLDSGVPDRFSGSGSGTDFTLKISRVEAEDLGVYYCIQGTYFPYTFGQGTKLEIK

EC50 (CD24(27-56aa)-GST NEOX-4 [4]): 0.0494 µg/mL
B3: huG14-107 (antibody, V domains shown)
VH: EVQLVESGGGLVKPGGSLRLSCAASGLTFSNYWMNWVRQAPGKGLEWVALIRLYSDNYAIHYAESVKGRFTISRDDSKSTVYLQMNSLKTEDTAVYYCTTGTDYWGQGTTVTVSS
VL: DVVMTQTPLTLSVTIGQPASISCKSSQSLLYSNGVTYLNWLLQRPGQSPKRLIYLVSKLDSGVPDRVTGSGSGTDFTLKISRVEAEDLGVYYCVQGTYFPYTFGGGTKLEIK

EC50 (CD24(27-56aa)-GST NEOX-4 [4]): 0.0183 µg/mL
B4: huG14-104 (antibody, V domains shown)
VH: EVQLVESGGGLVKPGGSLRLSCAASGLTFSNYWMNWVRQAPGKGLEWVALIRLYSDNYAIHYAESVKGRFTISRDDSKSTVYLQMNSLKTEDTAVYYCTTGTDYWGQGTTVTVSS
VL: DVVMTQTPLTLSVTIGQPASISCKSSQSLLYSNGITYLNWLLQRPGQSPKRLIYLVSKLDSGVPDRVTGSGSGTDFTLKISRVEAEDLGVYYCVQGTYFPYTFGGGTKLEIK

EC50 (CD24(27-56aa)-GST NEOX-4 [4]): 0.0293 µg/mL
B5: huG14-111 (antibody, V domains shown)
VH: EVQLVESGGGLVKPGGSLRLSCAASGLTFSNYWMNWVRQAPGKGLEWVALIRLYSDNYAIHYAESVKGRFTISRDDSKSTVYLQMNSLKTEDTAVYYCTTGTDFWGQGTTVTVSS
VL: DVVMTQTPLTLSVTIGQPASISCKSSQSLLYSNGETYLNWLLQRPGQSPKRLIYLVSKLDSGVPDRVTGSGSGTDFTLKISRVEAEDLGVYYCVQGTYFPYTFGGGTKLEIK

EC50 (CD24(27-56aa)-GST NEOX-4 [4]): 0.0157 µg/mL
B6: huG14-106 (antibody, V domains shown)
VH: EVQLVESGGGLVKPGGSLRLSCAASGLTFSNYWMNWVRQAPGKGLEWVALIRLYSDNYAIHYAESVKGRFTISRDDSKSTVYLQMNSLKTEDTAVYYCTTGTDYWGQGTTVTVSS
VL: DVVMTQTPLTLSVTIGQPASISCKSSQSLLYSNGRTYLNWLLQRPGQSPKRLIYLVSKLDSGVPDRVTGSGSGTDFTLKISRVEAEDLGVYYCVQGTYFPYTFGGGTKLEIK

EC50 (CD24(27-56aa)-GST NEOX-4 [4]): 0.0325 µg/mL
B7: huG14-101 (antibody, V domains shown)
VH: EVQLVESGGGLVKPGGSLRLSCAASGLTFSNYWMNWVRQAPGKGLEWVALIRLYSDNYAIHYAESVKGRFTISRDDSKSTVYLQMNSLKTEDTAVYYCTTGTDYWGQGTTVTVSS
VL: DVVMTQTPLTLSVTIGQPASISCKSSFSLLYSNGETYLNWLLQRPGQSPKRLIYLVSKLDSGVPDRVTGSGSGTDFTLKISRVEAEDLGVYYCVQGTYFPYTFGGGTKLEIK

EC50 (CD24(27-56aa)-GST NEOX-4 [4]): 0.0153 µg/mL
B8: huG14-110 (antibody, V domains shown)
VH: EVQLVESGGGLVKPGGSLRLSCAASGLTFSNYWMNWVRQAPGKGLEWVALIRLYSDNYAIHYAESVKGRFTISRDDSKSTVYLQMNSLKTEDTAVYYCTTGTDNWGQGTTVTVSS
VL: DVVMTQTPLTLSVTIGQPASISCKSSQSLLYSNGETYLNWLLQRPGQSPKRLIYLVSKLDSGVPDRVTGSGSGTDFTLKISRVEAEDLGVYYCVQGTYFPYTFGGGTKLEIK

EC50 (CD24(27-56aa)-GST NEOX-4 [4]): 0.0109 µg/mL
B9: huG14-109 (antibody, V domains shown)
VH: EVQLVESGGGLVKPGGSLRLSCAASGLTFSNYWGNWVRQAPGKGLEWVALIRLYSDNYAIHYAESVKGRFTISRDDSKSTVYLQMNSLKTEDTAVYYCTTGTDYWGQGTTVTVSS
VL: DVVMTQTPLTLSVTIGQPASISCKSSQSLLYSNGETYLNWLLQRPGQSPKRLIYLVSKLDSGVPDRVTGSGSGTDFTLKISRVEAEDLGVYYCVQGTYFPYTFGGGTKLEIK

EC50 (CD24(27-56aa)-GST NEOX-4 [5]): 0.00389 µg/mL
B10: huG14-130 (antibody, V domains shown)
VH: EVQLVESGGGLVKPGGSLRLSCAASGLTFSNYWMNWVRQAPGKGLEWVALIRLYSDNYAIHYAESVKGRFTISRDDSKSTVYLQMNSLKTEDTAVYYCTTGTDNWGQGTTVTVSS
VL: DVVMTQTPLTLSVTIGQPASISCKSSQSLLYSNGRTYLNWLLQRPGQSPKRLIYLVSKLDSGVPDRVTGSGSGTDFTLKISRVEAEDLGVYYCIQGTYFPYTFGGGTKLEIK

EC50 (CD24(27-56aa)-GST NEOX-4 [2]): 0.0044 µg/mL
EC50 (CD24 (cell surface) [1]): 0.431 µg/mL
EC50 (CD24 (cell surface) [3]): 0.676 µg/mL
B11: huG14-216 (antibody, V domains shown)
VH: EVQLVESGGGLVKPGGSLRLSCAASGLTFSNYWGNWVRQAPGKGLEWVALIRLYSDNYAIHYAESVKGRFTISRDDSKSTVYLQMNSLKTEDTAVYYCTTGTDYWGQGTTVTVSS
VL: DVVMTQSPLSLPVTPGRPASISCKSSHSLLYSNGKTYLNWLLQKPGQSPQRLIYLVSKLDSGVPDRFSGSGSGTDFTLKISRVEAEDLGVYYCIQGTYFPYTFGQGTKLEIK

EC50 (CD24(27-56aa)-GST NEOX-4 [4]): 0.0206 µg/mL
B12: huG14-105 (antibody, V domains shown)
VH: EVQLVESGGGLVKPGGSLRLSCAASGLTFSNYWMNWVRQAPGKGLEWVALIRLYSDNYAIHYAESVKGRFTISRDDSKSTVYLQMNSLKTEDTAVYYCTTGTDYWGQGTTVTVSS
VL: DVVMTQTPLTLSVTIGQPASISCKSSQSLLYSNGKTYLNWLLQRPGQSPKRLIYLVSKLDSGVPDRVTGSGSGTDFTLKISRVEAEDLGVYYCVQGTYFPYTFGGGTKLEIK

EC50 (CD24(27-56aa)-GST NEOX-4 [4]): 0.0784 µg/mL
B13: huG14-108 (antibody, V domains shown)
VH: EVQLVESGGGLVKPGGSLRLSCAASGLTFSNYWMNWVRQAPGKGLEWVALIRLYSDNYAIHYAESVKGRFTISRDDSKSTVYLQMNSLKTEDTAVYYCTTGTDYWGQGTTVTVSS
VL: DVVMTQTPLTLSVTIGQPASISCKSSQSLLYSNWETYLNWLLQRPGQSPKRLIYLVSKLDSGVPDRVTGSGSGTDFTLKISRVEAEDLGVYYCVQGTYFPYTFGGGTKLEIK

EC50 (CD24(27-56aa)-GST NEOX-4 [2]): 0.00621 µg/mL
EC50 (CD24 (cell surface) [1]): 0.235 µg/mL
EC50 (CD24 (cell surface) [3]): 0.484 µg/mL
B14: huG14-232 (antibody, V domains shown)
VH: EVQLVESGGGLVKPGGSLRLSCAASGLTFSNYWGNWVRQAPGKGLEWVALIRLYSDNYAIHYAESVKGRFTISRDDSKSTVYLQMNSLKTEDTAVYYCTTGTDNWGQGTTVTVSS
VL: DVVMTQSPLSLYVTPGRPASISCKSSHSLLYSNGRTYLNWLLQKPGQSPQRLIYLVSKLDSGVPDRFSGSGSGTDFTLKISRVEAEDLGVYYCIQGTYFPYTFGQGTKLEIK

EC50 (CD24(27-56aa)-GST NEOX-4 [2]): 0.00889 µg/mL
EC50 (CD24 (cell surface) [1]): 0.35 µg/mL
EC50 (CD24 (cell surface) [3]): 0.63 µg/mL
B15: huG14-230 (antibody, V domains shown)
VH: EVQLVESGGGLVKPGGSLRLSCAASGLTFSNYWGNWVRQAPGKGLEWVALIRLYSDNYAIHYAESVKGRFTISRDDSKSTVYLQMNSLKTEDTAVYYCTTGTDNWGQGTTVTVSS
VL: DVVMTQSPLSLPVTPGRPASISCKSSHSLLYSNGKTYLNWLLQKPGQSPQRLIYLVSKLDSGVPDRFSGSGSGTDFTLKISRVEAEDLGVYYCIQGTYFPYTFGQGTKLEIK

EC50 (CD24(27-56aa)-GST NEOX-4 [4]): 0.136 µg/mL and 0.128 µg/mL
EC50 (CD24(27-56aa)-GST NEOX-4 [2]): 0.177 µg/mL
EC50 (CD24(27-56aa)-GST NEOX-4 [5]): 0.154 µg/mL
B16: huG14-1 (antibody, V domains shown)
VH: EVQLVESGGGLVKPGGSLRLSCAASGLTFSNYWMNWVRQAPGKGLEWVALIRLYSDNYAIHYAESVKGRFTISRDDSKSTVYLQMNSLKTEDTAVYYCTTGTDYWGQGTTVTVSS
VL: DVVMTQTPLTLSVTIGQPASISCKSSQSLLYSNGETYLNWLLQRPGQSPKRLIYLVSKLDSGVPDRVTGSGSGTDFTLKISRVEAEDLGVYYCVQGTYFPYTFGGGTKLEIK

EC50 (CD24(27-56aa)-GST NEOX-4 [5]): 0.00383 µg/mL
B17: huG14-134 (antibody, V domains shown)
VH: EVQLVESGGGLVKPGGSLRLSCAASGLTFSNYWGNWVRQAPGKGLEWVALIRLYSDNYAIHYAESVKGRFTISRDDSKSTVYLQMNSLKTEDTAVYYCTTGTDNWGQGTTVTVSS
VL: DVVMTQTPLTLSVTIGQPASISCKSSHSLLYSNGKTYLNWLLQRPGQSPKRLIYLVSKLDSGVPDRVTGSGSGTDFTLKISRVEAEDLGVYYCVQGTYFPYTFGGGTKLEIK

EC50 (CD24(27-56aa)-GST NEOX-4 [4]): 0.00813 µg/mL
B18: huG14-103 (antibody, V domains shown)
VH: EVQLVESGGGLVKPGGSLRLSCAASGLTFSNYWMNWVRQAPGKGLEWVALIRLYSDNYAIHYAESVKGRFTISRDDSKSTVYLQMNSLKTEDTAVYYCTTGTDYWGQGTTVTVSS
VL: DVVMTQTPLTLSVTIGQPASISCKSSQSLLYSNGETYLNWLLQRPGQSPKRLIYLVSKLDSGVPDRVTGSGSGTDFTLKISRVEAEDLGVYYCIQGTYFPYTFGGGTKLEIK

EC50 (CD24(27-56aa)-GST NEOX-4 [4]): 0.00961 µg/mL
B19: huG14-102 (antibody, V domains shown)
VH: EVQLVESGGGLVKPGGSLRLSCAASGLTFSNYWMNWVRQAPGKGLEWVALIRLYSDNYAIHYAESVKGRFTISRDDSKSTVYLQMNSLKTEDTAVYYCTTGTDYWGQGTTVTVSS
VL: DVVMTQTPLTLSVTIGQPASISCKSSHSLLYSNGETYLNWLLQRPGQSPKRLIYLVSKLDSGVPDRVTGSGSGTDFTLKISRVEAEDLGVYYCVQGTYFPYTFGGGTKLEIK

EC50 (CD24 (cell surface) [1]): 0.391 µg/mL
EC50 (CD24 (cell surface) [3]): 0.57 µg/mL
B20: huG14-131 (antibody, V domains shown)
VH: EVQLVESGGGLVKPGGSLRLSCAASGLTFSNYWMNWVRQAPGKGLEWVALIRLYSDNYAIHYAESVKGRFTISRDDSKSTVYLQMNSLKTEDTAVYYCTTGTDNWGQGTTVTVSS
VL: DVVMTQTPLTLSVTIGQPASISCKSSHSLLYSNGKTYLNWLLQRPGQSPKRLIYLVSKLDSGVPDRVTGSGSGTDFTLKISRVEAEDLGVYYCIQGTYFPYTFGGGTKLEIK

EC50 (CD24(27-56aa)-GST NEOX-4 [5]): 0.00387 µg/mL
B21: huG14-135 (antibody, V domains shown)
VH: EVQLVESGGGLVKPGGSLRLSCAASGLTFSNYWGNWVRQAPGKGLEWVALIRLYSDNYAIHYAESVKGRFTISRDDSKSTVYLQMNSLKTEDTAVYYCTTGTDNWGQGTTVTVSS
VL: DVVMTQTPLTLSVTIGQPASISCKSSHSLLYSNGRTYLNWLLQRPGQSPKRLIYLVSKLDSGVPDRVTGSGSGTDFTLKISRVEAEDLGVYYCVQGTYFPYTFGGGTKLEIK
